Substrate: [H][C@]12Cc3ccccc3[C@@]1([H])OC(=O)/C2=C/O[C@@H]1C=C(C)C(=O)O1
Experiment: coupled enzyme assay (NADH oxidation), Lineweaver-Burk plot
Assay type: biochemical, Sporobolus stapfianus
Conditions: pH 7.4, leaf protein extract 25 µg, background without substrate subtracted, vector-only control extract

B1: SDG8i (Sporobolus stapfianus) (protein)
chain: MTKTVVLYPIRGAGHLTPMIQLARLFLQHGGFNVTVAIGSSPEDSDFSALVARAAAANPSVTFHILPQPSSTPDGSNTDVTPKHKHPVVHLFDTLGAMNAPLRDFLRSLPAVDALVVDMFCYDALDVAAELELPAYFLYASGAGDLAVFLNLPSARAGMTTSFAELGDTLLTLPGAPPFKASDLPADAINDNEVARCTRRMFERMPESHGILVNSFEALETRAVRALRDGLCVPDRATPPIYCIGPLVSGGGGEKEHECLRWLDAQPDNSVVFLCFGSMGTFSKKQLHDIAVGLEKSEQRFLWVVRSPRSDDHKFGEPRPELDLDAFLRDGFLERTKERGLVLKSWAPQVDVLHHRATGAFVTHCGWNSTLEGIMAGIPLLCWPLYAEQRMNKVFIVDELKLGVEMRGYNQEVVKAEEVESKVRWVLESEAGQAIRERVLAMKDKAAEALKEGGPSHVEFVKFLKDLEAVGRP
notes: unpurified leaf protein extract; no tag stated
Km: 349 µM
